How the values were obtained:
[1] = biological target: Pumby8_KD_4 (synthetic (from Homo sapiens Pumilio unit 6)) (UniProt Q14671); assay: FP; conditions: 25 mM Tris-HCl pH 7.5, 0.5 mM EDTA, 50 mM KCl, 0.1 mg/mL BSA; active-fraction corrected
[2] = biological target: Pumby8_KD_3 (synthetic (from Homo sapiens Pumilio unit 6)) (UniProt Q14671); assay: FP; conditions: 25 mM Tris-HCl pH 7.5, 0.5 mM EDTA, 50 mM KCl, 0.1 mg/mL BSA; active-fraction corrected
Pumby8_KD_3 (synthetic (from Homo sapiens Pumilio unit 6)), sequence (Q14671 1028-1063): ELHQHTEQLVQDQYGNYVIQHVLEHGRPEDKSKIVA

Pumby8_KD_4 (synthetic (from Homo sapiens Pumilio unit 6)), sequence (Q14671 1028-1063): as above

With CCAGAAUCAUGUCAGUUCG [KD_2/KD_4 cognate] the Kd [1] was 0.439 nM.

CCAGAAUUGUAGAUAUUCG [KD_3 cognate] gave a Kd [2] of 1.34 nM.

— patent US20220163515
